Earlier results on one substance are cited in paper PMC3995210.

This data set concerns the target dynein intermediate chain (IC) (Drosophila melanogaster) (UniProt Q24246). Put plainly: ITC.
Chain of UniProt Q24246 (Q24246 whole entry): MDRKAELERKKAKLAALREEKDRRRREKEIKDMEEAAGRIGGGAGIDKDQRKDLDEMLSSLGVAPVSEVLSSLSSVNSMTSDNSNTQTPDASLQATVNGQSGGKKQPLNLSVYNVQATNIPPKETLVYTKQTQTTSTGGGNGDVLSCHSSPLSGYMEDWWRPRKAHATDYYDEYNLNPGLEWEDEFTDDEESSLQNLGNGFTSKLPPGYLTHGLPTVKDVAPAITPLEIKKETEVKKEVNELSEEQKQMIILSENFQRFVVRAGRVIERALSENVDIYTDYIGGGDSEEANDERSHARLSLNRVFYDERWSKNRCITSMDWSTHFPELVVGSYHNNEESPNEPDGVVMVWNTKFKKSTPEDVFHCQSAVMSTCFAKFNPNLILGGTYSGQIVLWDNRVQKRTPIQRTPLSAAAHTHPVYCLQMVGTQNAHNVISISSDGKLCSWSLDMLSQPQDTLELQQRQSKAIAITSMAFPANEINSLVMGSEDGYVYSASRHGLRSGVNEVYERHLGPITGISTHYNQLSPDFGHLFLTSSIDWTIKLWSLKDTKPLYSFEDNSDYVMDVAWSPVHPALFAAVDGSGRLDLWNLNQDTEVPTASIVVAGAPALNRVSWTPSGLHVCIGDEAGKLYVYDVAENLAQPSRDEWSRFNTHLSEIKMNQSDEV

As to LC8 (from UniProt Q24117), the Kd is 9.8 µM.
